Laboratory results as given in paper doi:10.1101/2024.04.04.584535, “Human Saposin B Ligand Binding and Presentation to α-Galactosidase A” (bioRxiv, 2024).
Substitutions are numbered along the chain they refer to. Numbers in names are those of the source. Blank lines part the entries; values can stand above or below the molecule they belong to.

T1: SapB (saposin B; sphingolipid activator protein B) (Homo sapiens, UniProt P07602)
T1 sequence (P07602 195-273): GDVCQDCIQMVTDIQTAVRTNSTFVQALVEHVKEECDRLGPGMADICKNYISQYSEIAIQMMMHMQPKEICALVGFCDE

T2: SapD (saposin D) (Homo sapiens, UniProt P07602)
T2 construct: gene PSAP; mature saposin D, E. coli expressed
T2 sequence (P07602 405-486): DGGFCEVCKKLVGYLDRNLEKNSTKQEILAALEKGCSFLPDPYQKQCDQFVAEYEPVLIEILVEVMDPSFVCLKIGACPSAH

T3: α-galactosidase A, wild type (human, UniProt P06280 32-429)
T3 sequence (looked up): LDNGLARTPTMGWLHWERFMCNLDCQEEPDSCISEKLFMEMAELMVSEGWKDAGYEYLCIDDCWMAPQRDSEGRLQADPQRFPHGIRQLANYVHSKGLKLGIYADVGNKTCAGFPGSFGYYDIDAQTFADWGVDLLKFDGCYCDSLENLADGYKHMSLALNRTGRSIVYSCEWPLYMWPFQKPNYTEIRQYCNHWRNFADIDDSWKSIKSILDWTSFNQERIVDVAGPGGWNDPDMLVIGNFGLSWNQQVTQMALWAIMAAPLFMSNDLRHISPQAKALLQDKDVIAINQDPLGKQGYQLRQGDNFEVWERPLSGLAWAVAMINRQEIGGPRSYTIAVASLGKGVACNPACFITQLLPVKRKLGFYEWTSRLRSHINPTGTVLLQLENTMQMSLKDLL

B1: α-galactosidase A (GLA) (Homo sapiens) (protein)
chain: T3 sequence (looked up)
notes: wild-type human GLA, C-terminal 2x-FLAG, Sf9 expressed
B2: α-galactosidase A D170A (catalytic nucleophile mutant) (enzyme, human)
chain: T3 sequence (looked up) with D139A
notes: human α-galactosidase A (UniProt P06280), D170A mutant; Secreted into the Sf9 supernatant, so the signal peptide is probably removed (surmised); Glycosylated; Homodimer; also called GLA^D170A; GLA
B3: Saposin D (natural protein, human, UniProt P07602 405-486, looked up)
chain: T2 sequence (P07602 405-486)
notes: saposin D, the mature cut product of prosaposin (UniProt P07602); Tag printed as enterokinase-cleavable N-terminal His8-DDDDK-GAS; GAS probably left after cleavage (surmised); also called SapD; source: E. coli Shuffle T7 Express, purified (heat shock, Ni agarose, enterokinase cleavage, SEC); not shown: His8, N-terminal, cleaved

Legend:
[1] = molecular target: T1, SapB (saposin B; sphingolipid activator protein B); assay: NBD fluorescence equilibrium binding (pH […] days), weak; set-up: gene PSAP; mature saposin B, E. coli expressed
[2] = molecular target: T2, SapD (saposin D); assay: NBD fluorescence equilibrium binding, acidic pH only
[3] = molecular target: T1, SapB (saposin B; sphingolipid activator protein B); assay: NBD fluorescence equilibrium binding (pH […] h); also SEC co-migration and LC-MS of co-crystals; set-up: gene PSAP; mature saposin B, E. coli expressed (SapB dimer)
[4] = molecular target: T3, α-galactosidase A, wild type
[5] = molecular target: Sphingolipid activator protein B (saposin B) (human) (UniProt P07602); assay: crystal structure; SapB co-crystallised with Gb3-NBD at about molar equivalence; 3.25 M malonate pH 5, 20 °C; 2.68 Å
[6] = molecular target: Sphingolipid activator protein B (saposin B) (human) (UniProt P07602); assay: cross-linking; BS3 cross-linker (0-1 mM), 10 μM GLA^D170A or GAA, 50-100 μM SapB (with 20% SapB^ANBD in some gels) or 100 μM SapD, 0-200 μM Gb3-NBD, PBS pH 6.5, one hour; Tricine-SDS-PAGE with One-Step Blue stain, in-gel NBD fluorescence and anti-GLA western blot; also at 10 μM SapB^ANBD, 1 μM GLA^D170A, 50 μM Gb3-NBD
[7] = substrate: O=[N+]([O-])c1ccc(O[C@H]2O[C@H](CO)[C@H](O)[C@H](O)[C@H]2O)cc1; assay: purified protein; format: biochemical, Homo sapiens
[8] = molecular target: the molecule itself; assay: crystal structure; SapB preincubated with DDAO detergent (~1:47) at pH 5, mixed with GLA^D170A; crystals in 0.1 M Tris pH 8, 1 M ammonium sulfate, 20 °C; 3.53 Å
[9] = molecular target: T3, α-galactosidase A, wild type; assay: cell-based or functional assay
[10] = molecular target: B2; assay: cross-linking; BS3 cross-linker (0-1 mM), 10 μM GLA^D170A or GAA, 50-100 μM SapB (with 20% SapB^ANBD in some gels) or 100 μM SapD, 0-200 μM Gb3-NBD, PBS pH 6.5, one hour; Tricine-SDS-PAGE with One-Step Blue stain, in-gel NBD fluorescence and anti-GLA western blot; also at 10 μM SapB^ANBD, 1 μM GLA^D170A, 50 μM Gb3-NBD; details: both partners purified

Kd [1]: > 95 µM
Molecule: CCCCCCCCCCCCCCC[C@@H](O)[C@H](CO)NC(=O)CCCCCCCCCCCNc1ccc([N+](=O)[O-])c2nonc12 [Cer-NBD]

Kd [2]: 38 ± 2 µM
Kd [3]: 5.8 ± 0.5 µM
Molecule: CCCCCCCCCCCCC/C=C/[C@@H](O)[C@H](CO[C@@H]1O[C@H](CO)[C@@H](O[C@@H]2O[C@H](CO)[C@H](O[C@H]3O[C@H](CO)[C@H](O)[C@H](O)[C@H]3O)[C@H](O)[C@H]2O)[C@H](O)[C@H]1O)NC(=O)CCCCCCCCCCCNc1ccc([N+](=O)[O-])c2nonc12 [Gb3-NBD]

galactose production from Gb3-NBD by GLA in an 18-hour enzyme-activator assay, relative to wild-type SapB [4]: 80%
Molecule: SapB^ANBD (SapB N21C labelled with IANBD amide) (natural protein)

stoichiometry N [5]: 2
stoichiometry N [6]: 2
Molecule: Sphingolipid activator protein B (saposin B) (from UniProt P07602 195-273) (natural protein)

Molecule: B1
Km [7]: 9.9 mM

Molecule: B2
Km [7]: 7.4 mM
stoichiometry N [8]: 2

Molecule: B3
free galactose released from Gb3-NBD by wild-type GLA after 2.5 hours in acidic buffer (Amplex Red galactose assay); SapD at a tenfold molar excess to GLA [9]: ~5 µM
binding result [10]: binds
